Assay results from US20250333523A1 (Alector, published 2025).

What was measured:
[1] = target: T1, mouse IL-18BPd-human IgG Fc (R&D Systems, Cat. #122-BP-100) (mouse; human, UniProt Q9Z0M9 29-193); experiment: blocking ELISA, competitor mouse IL-18
T1 construct: Bought; also called mouse IL-18BPd-Fc Chimera
T1 sequence (looked up): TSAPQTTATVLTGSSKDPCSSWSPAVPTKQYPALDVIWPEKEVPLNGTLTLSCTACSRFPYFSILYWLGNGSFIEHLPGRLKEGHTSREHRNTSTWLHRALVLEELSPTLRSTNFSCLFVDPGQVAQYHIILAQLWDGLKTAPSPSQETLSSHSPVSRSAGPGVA

[2] = target: T2, Avi/His-HuIL18BPa (recombinant human IL-18BP isoform A with Avi and poly-His tags) (human, biotinylated with BirA on the Avi tag in some assays); experiment: blocking ELISA, competitor human IL-18
T2 construct: also called human IL-18BP-Avi-His
T2 chain: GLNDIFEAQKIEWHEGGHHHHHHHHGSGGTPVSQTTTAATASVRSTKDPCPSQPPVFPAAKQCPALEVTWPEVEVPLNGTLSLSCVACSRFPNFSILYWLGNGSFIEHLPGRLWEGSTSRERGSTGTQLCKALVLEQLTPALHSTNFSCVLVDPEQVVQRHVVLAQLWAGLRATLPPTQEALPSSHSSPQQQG

[3] = target: T3, His/Avi-CynoIL18BP (recombinant cynomolgus IL-18BP with His and Avi tags) (cynomolgus monkey); experiment: SPR Biacore T200, IgG captured on Protein A/G
T3 construct: also called cynomolgus IL-18BP-Avi-His
T3 chain: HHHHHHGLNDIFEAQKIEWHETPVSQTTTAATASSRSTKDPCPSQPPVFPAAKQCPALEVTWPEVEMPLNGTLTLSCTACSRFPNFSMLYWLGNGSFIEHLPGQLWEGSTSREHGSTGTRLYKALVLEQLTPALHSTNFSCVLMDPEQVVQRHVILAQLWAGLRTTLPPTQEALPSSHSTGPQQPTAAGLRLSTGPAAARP

[4] = target: T2, Avi/His-HuIL18BPa (recombinant human …); experiment: SPR Biacore T200, IgG captured on Protein A/G
[5] = target: T3, His/Avi-CynoIL18BP (recombinant …); experiment: blocking ELISA, competitor rhesus IL-18
[6] = target: T4, Avi/HisMsIL18BPd (recombinant mouse IL-18BP with Avi and poly-His tags) (mouse, biotinylated with BirA on the Avi tag in some assays); experiment: cell-based or functional assay
T4 chain: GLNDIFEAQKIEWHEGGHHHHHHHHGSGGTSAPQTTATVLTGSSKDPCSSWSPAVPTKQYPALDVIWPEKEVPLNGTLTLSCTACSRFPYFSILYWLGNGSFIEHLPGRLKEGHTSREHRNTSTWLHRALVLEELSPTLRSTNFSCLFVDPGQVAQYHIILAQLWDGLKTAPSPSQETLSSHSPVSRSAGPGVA

[7] = target: T2, Avi/His-HuIL18BPa (recombinant human …); experiment: cell-based or functional assay
[8] = target: T4, Avi/HisMsIL18BPd (recombinant mouse …); experiment: ELISA, coated IL-18BP
[9] = target: T3, His/Avi-CynoIL18BP (recombinant …); experiment: ELISA, coated IL-18BP
[10] = target: T2, Avi/His-HuIL18BPa (recombinant human …); experiment: ELISA, coated IL-18BP
[11] = target: T3, His/Avi-CynoIL18BP (recombinant …); experiment: cell-based or functional assay
[12] = target: T3, His/Avi-CynoIL18BP (recombinant …); experiment: SPR Carterra LSA, IgG immobilized
[13] = target: T2, Avi/His-HuIL18BPa (recombinant human …); experiment: SPR Carterra LSA, IgG immobilized
[14] = target: T5, Avi/HisMsIL18BPd (recombinant mouse IL-18BP with Avi and poly-His tags) (mouse); experiment: ELISA, coated IL-18BP
T5 sequence (chain, biotinylated with BirA on the Avi tag in some assays): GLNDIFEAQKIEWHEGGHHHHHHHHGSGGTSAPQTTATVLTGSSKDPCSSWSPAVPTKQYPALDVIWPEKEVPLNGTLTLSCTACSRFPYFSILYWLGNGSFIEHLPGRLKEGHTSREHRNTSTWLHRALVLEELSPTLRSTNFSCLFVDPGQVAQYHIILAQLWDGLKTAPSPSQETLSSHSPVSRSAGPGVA

[15] = target: T5, Avi/HisMsIL18BPd (recombinant mouse IL-18BP with Avi and poly-His tags) (mouse); experiment: cell-based or functional assay
[16] = target: T3, His/Avi-CynoIL18BP (recombinant …); experiment: SPR Carterra LSA, IgG immobilized; WB = weak binding with KD > 1 µM
[17] = target: T4, Avi/HisMsIL18BPd (recombinant mouse …); experiment: SPR, qualitative

Binder	blocking ELISA signal normalized to isotype control (=1) [1]	blocking ELISA signal normalized to isotype control (=1) [2]	Kd [3] [nM]	Kd [4] [nM]	blocking ELISA signal normalized to isotype control (=1) [5]	EC50 of IFNγ release, mouse splenocytes [6] [nM]	Fold change of IFNγ at 10 µg/ml vs baseline, mouse splenocytes [6] [fold]	EC50 of IFNγ release, human PBMC [7] [nM]	Fold change of IFNγ at 10 µg/ml vs baseline, human PBMC [7] [fold]	ELISA binding ratio (fold-change over background) [8] [fold over background]	ELISA binding ratio (fold-change over background) [9] [fold over background]	ELISA binding ratio (fold-change over background) [10] [fold over background]	% of Max Gamma, human NK cells [11] [%]	EC50 of IFNγ release, human NK cells [11] [nM]	Kd [12] [nM]	Kd [13] [nM]	ELISA binding ratio (fold-change over background) (fold over background) [14]	Fold change of IFNγ at 10 µg/ml vs baseline, mouse splenocytes [15] [fold]	Kd [16] [nM]	binding result [17]
anti-IL18BP antibody BP-11 (antibody, human IgG1, V domains shown) VH: QVQLQQSGAELAKPGASVKMSCKASGYTFTNYWMHWVKQRPGQGLEWIGHIDPSTGYTEYNQKFKDKATLTADKSSSTAYMQLSSLTSEDSAVYYCARGLGGLFGYWGQGTLVTVSA VL: DIQMTQSPSSLSASLGGKVTITCKASQDINKFIAWYQHKPGKGPRLLIHHTSTLMPGIPSRFSGSGSGREYSFSISNLEPEDIATYYCLQYDNLLWTFGGGTKLEIR	0.14 ratio to isotype control	0.089 ratio to isotype control	1	2.9	0.49 ratio to isotype control	7	2.75	4.25	9.72	43.6	47.6	44.4	100	37.1						
anti-IL18BP antibody BP-16 (antibody, human IgG1, V domains shown) VH: QVQLVQSGAEVKKPGASVKVSCKASGYTFTTYDINWVRQAPGQGLEWMGIIGSYGGATSYAQKFQGRVTMTRDTSTSTVYMELSSLRSEDTAVYYCATAEEELRFDYWGQGTLVTVSS VL: DIQMTQSPSSLSASVGDRVTITCRASQSISSYLNWYQQKPGKAPKLLIYKASTLHNGVPSRFSGSGSGTDFTLTISNLQPEDFATYYCQQAISFPLTFGGGTKVEIK			11.8	< 0.003		3.08	11.9	1.66	238	22.1	25.1	23.6	51.6	8.4						
anti-IL18BP antibody BP-08 (antibody, human IgG1, V domains shown) VH: QVQLQQPGAELVKPGASVKLSCKVSGYTFTSYWMHWVKQRPGQGLEWIGMIDPNSDSSRYNEKFKNRATLTADKSSSTAFMQFSSLTSEDSAVYYCARSRLGQDYWGQGTTLTVSS VL: DIVMTQSHKFMSTSVGDRVSITCKASQDVSTAVAWYQQKPGQSPKLLIYWASTRHTGVPDRFTGSESGTDYTLIISSVQAEDLALYYCQQHFSTPYTFGGGTKLEIK		0.133 ratio to isotype control			0.478 ratio to isotype control			2.01	5.19		41.5	38.8	58.4	19.2	41.4	6.9	35	0.75		
anti-IL18BP antibody BP-02 (antibody, human IgG1, V domains shown) VH: EVQLQQSGPELVKPGASVKIPCKASGYTFTDYNMDWVKQSHGKSLEWIGNINTNNGGTVYNQKFKGKATLTVDKSSSTAYMELRSLTSEDTAVYYCARSDTTVVASRYYAMDYWGQGTSVTVSL VL: DIVLTQSPASLAMSLGKRATISCRASESVSIIATNLIHWYQQKPGQPPKLLIYHASNLETGVPARFSGSGSRTDFTLTIDPVEKDDVAIYYCLQSRKIPPTFGGGTKLEIK	0.132 ratio to isotype control	0.167 ratio to isotype control			0.973 ratio to isotype control	4.3	9.34	0.75	16.7	39.2	29.7	35.1	10.4	1.99		1.6			> 1000	
anti-IL18BP antibody BP-06 (antibody, human IgG1, V domains shown) VH: QIQLQQSGPELVKPGASVKISCKASGYTFTDYYLNWVKQTPGQGLEWIGWIYPGSGNTKYTEKFKDKASLTVDTSSNTAYMQLSSLTSDDTAVYFCARRGVAWFAYWGQGTLVTVSA VL: DIKMTQSPSSIYASLGERVTITCKASQDINSYLSWFQQKPGKSPKTLIHRANRLVDGVPSRFSGSGSGQDYSLTISSLEYEDMGIYYCLQHDDFPPTFGAGTNLELK	0.971 ratio to isotype control	0.174 ratio to isotype control			0.378 ratio to isotype control		1.11	1.23	10.9	1.2	44.3	42.1	75.8	8.07						no binding
